These are literature values, as cited in PMC8406260.

This series concerns the target SARS-CoV-2 main protease Mpro (Severe acute respiratory syndrome coronavirus 2) (UniProt P0DTD1).

Take “SARS-CoV-2 main protease Mpro (from UniProt P0DTD1)”: the Kd was 2000 nM.
